Reference: publication PMC9854632, “Relationships between the Reversible Oxidation of the Single Cysteine Residue and the Physiological Function of the Mitochondrial Glutaredoxin S15 from Arabidopsis thaliana” (Antioxidants, 2022)
Values belong to the molecule of their own block, whether it stands above or below them.

Experiments:
Cys91 = Cys91 (UniProt position 91, PESPQCGFSSL); experiment: chemical modification; details: room temperature; not stated (100 mM buffers, no added salt stated); 100 mM citrate buffers from pH 2.0 to 6.0; 100 mM phosphate buffers from pH 6.5 to 8.0; reduced (TCEP pre-reduced, desalted) apo monomer, 10 µM
[1] = target: T1, AtGRXS15 (reduced monomer) (Arabidopsis thaliana, UniProt Q8LBK6); experiment: mBBr fluorescence titration of remaining free thiol; assay type: binding; details: oxidant concentration for half-maximal protein thiol oxidation, no equilibrium or Michaelis constant; covalent (Cys91); 5 µM protein, 1 h, RT, 30 mM Tris-HCl pH 8.0, 200 mM NaCl
T1 construct: gene GRXS15; about 17 kDa on mPEG24 gel
T1 sequence (Q8LBK6 38-169): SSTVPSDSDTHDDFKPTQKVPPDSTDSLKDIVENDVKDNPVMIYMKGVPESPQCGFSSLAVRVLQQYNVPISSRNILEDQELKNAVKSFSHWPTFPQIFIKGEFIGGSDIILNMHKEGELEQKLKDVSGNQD

Cys = details: cited from earlier work
[2] = target: the molecule itself; experiment: non-reducing SDS-PAGE after oxidation and thiol alkylation (mPEG24); pre-reduced AtGRXS15 (13 µM) incubated with 5- or 10-fold molar excess of H2O2, DTTox, GSSG or GSNO for 2 h at RT; TCA precipitation, mPEG24 alkylation, non-reducing SDS-PAGE; dimer mainly with H2O2, to some extent with GSSG and GSNO, no oxidation with DTTox

Molecule: Glutaredoxin S15, mitochondrial (AtGRXS15) (Arabidopsis thaliana)
pKa (Cys91): 4.0 ± 0.1

S0.5 [1]: 21 ± 1 µM
Molecule: N[C@@H](CCC(=O)N[C@@H](CSN=O)C(=O)NCC(=O)O)C(=O)O [GSNO]

Molecule: Monothiol glutaredoxin 5, mitochondrial (Grx5) (Saccharomyces cerevisiae)
pKa (Cys): ~5.0

Molecule: Glutaredoxin S16 (AtGRXS16) (Arabidopsis thaliana)
pKa (Cys): ~3.9

B1: Arabidopsis thaliana mitochondrial glutaredoxin S15 (natural protein, UniProt Q8LBK6 38-169, looked up)
chain: T1 sequence (Q8LBK6 38-169)
notes: single cysteine Cys91 in the CGFS motif; no tag is named; The fractions kept after the last SEC step were the monomeric ones; The dimer seen after oxidation is covalent (intermolecular disulfide); also called AtGRXS15; GRXS15; source: E. coli C41(DE3) with pSBET helper plasmid, purified (ammonium sulfate, SEC, Q-sepharose, Superdex S75); pre-reduced with TCEP
stoichiometry N [2]: 2
